B1: Ras GTPase-activating protein 1, residues 281 to 341; numbered along this chain, P20936 (parent)
chain: RRRVRAILPYTKVPDTDEISFLKGDMFIVHNELEDGWMWVTNLRTDEQGLIVEDLVEEVGR

± gives the uncertainty stated by the source.

In the data set the parent is B1. Nature of the data set: abundance fitness (aPCA) (normalised: wild type 0, dead -1); higher = more abundant; growth selection in yeast, the domain comes from the species named. Particulars: Homo sapiens.
On to RRRVRAILPYTKVPDTDEISFLKGDMFIVHNELEDGWMWSTNLRTDEQGLIVEDLVEEVGR [V40S], for which the abundance fitness is -0.826 ± 0.036. Then RRRVRAILPYTKVPDTDEISFLKGDMFIQHNELEDGWMWVTNLRTDEQGLIVEDLVEEVGR [V29Q], with -0.954 ± 0.16.

Turning to RRRVRAILPYTKVPDTDEISFLKGDMFIIHNELEDGWMWVTNLRTDEQGLIVEDLVEEVGR [V29I], the abundance fitness is -0.057 ± 0.029.

RYRVRAILPYTKVPDTDEISFLKGDMFIVHNELEDGWMWVTNLRTDEQGLIVEDLVEEVGR [R2Y]: the abundance fitness was -0.103 ± 0.034. In the case of RRRVRAILPYTKVPDTDEISFLKGDMFIVHNELTDGWMWVTNLRTDEQGLIVEDLVEEVGR [E34T], the abundance fitness is -0.106 ± 0.041. Next, RRRVRAILPYTKVPDTDEISFLKGDMFIVHNELFDGWMWVTNLRTDEQGLIVEDLVEEVGR [E34F]: -0.238 ± 0.031. Take RRRVRAILPYTKVPDTDEISFLKGDMFIVHNELEDGWMWVTNLRTDEQTLIVEDLVEEVGR [G49T]: the abundance fitness is -0.791 ± 0.06. Next, RRRVRAILPYTKVPDTDEISFLKGDMFIVHNELEDGWMWVTNLRTDEQLLIVEDLVEEVGR [G49L]: -0.847 ± 0.049; RRRVRAILPYTKVPDTDEISFLKGDMFIVHNELEDGWMQVTNLRTDEQGLIVEDLVEEVGR [W39Q]: -0.079 ± 0.046. Then RRRVRAILPYTKVPDTDEISFLKGDMFIVHNELEDGWMWVTNLRTDEQGLIFEDLVEEVGR [V52F], with 0.009 ± 0.026. Next, RRRVRAILPYTKVPDTDEISFLKGDMFIVHNELEDGWMWVTNLRTDEQGLIIEDLVEEVGR [V52I]: 0.022 ± 0.027.

With RRRVRAILPYTKVPDTDEISFLKGDMFIVHNELEDGWMWVTNLRTDEQGLIVEDLVEYVGR [E58Y], the abundance fitness is -0.305 ± 0.031.

As to RRRVRAILPYTKVPDTDEISFLKGDMFIVHNELEDGWMWVTNLRTDEQGLIVEDYVEEVGR [L55Y], the abundance fitness was 0.034 ± 0.03. Then RRRVRAILPYTKVPDTDEISFLKGDMFIVHNELEDGWMWVTNLRTDEQGLIVEDMVEEVGR [L55M], with 0.005 ± 0.057; and RRRVRAILPYTKVPDTDEISFLKGDMFIVHNELEVGWMWVTNLRTDEQGLIVEDLVEEVGR [D35V], with -0.392 ± 0.036. For RRRVRAILPYTKVPDTDEISFLKGDMFIVHNELEDGWMWVTNLRTDEQGLIVEDLVEEVAR [G60A], the abundance fitness is -0.071 ± 0.12. In the case of RRRVRAILPYTKVPDTDEISFLKGDMFIVHNELEDGWMWVTNLRTNEQGLIVEDLVEEVGR [D46N], the abundance fitness is 0.004 ± 0.025. On to RRRVRAILPYTKVPDTDEISFLKGDMKIVHNELEDGWMWVTNLRTDEQGLIVEDLVEEVGR [F27K], for which the abundance fitness was -0.965 ± 0.13. Take RRRVREILPYTKVPDTDEISFLKGDMFIVHNELEDGWMWVTNLRTDEQGLIVEDLVEEVGR [A6E]: the abundance fitness was -0.819 ± 0.054. Next, RRRVRAILPYTKVIDTDEISFLKGDMFIVHNELEDGWMWVTNLRTDEQGLIVEDLVEEVGR [P14I]: -0.124 ± 0.029.

In the case of RRRVRAILPYTKVPDTDEISFLKGDMFIVHNCLEDGWMWVTNLRTDEQGLIVEDLVEEVGR [E32C], the abundance fitness was -0.058 ± 0.029. Next, RRRVRAILPYTKVPDTDEISFLKGDMFIVHNELEDGWMWVSNLRTDEQGLIVEDLVEEVGR [T41S]: -0.19 ± 0.026; RRRVRAILPYTKVPDTDEISFLKGDMFIVHNELEDGWMWVHNLRTDEQGLIVEDLVEEVGR [T41H]: -0.078 ± 0.034. Then RRRVRAILPYTKVPDTDEISFLKGDMFIVHNELEDGWMWVTNLRTDECGLIVEDLVEEVGR [Q48C], with -0.043 ± 0.028.

Regarding RRRVRAILPYTKVPDTDEISFLKGDMFIVHNELEDGWMWVTNLRTDEKGLIVEDLVEEVGR [Q48K], the abundance fitness amounted to 0.015 ± 0.054.

For DRRVRAILPYTKVPDTDEISFLKGDMFIVHNELEDGWMWVTNLRTDEQGLIVEDLVEEVGR [R1D], the abundance fitness turned out to be 0.122 ± 0.053.

In the case of PRRVRAILPYTKVPDTDEISFLKGDMFIVHNELEDGWMWVTNLRTDEQGLIVEDLVEEVGR [R1P], the abundance fitness was -0.283 ± 0.13. Turning to NRRVRAILPYTKVPDTDEISFLKGDMFIVHNELEDGWMWVTNLRTDEQGLIVEDLVEEVGR [R1N], the abundance fitness turned out to be 0.063 ± 0.037. Then RRRVRAILPYTKVPDTDEISFLKKDMFIVHNELEDGWMWVTNLRTDEQGLIVEDLVEEVGR [G24K], with -0.981 ± 0.16; and RRRVRAILPYTKVPDTDEISFLKGDMFIVHNELEDGWMWVTNNRTDEQGLIVEDLVEEVGR [L43N], with -0.388 ± 0.036. Next, RRRVRAILPYTKVPDTDEISFAKGDMFIVHNELEDGWMWVTNLRTDEQGLIVEDLVEEVGR [L22A]: -0.095 ± 0.042; RRRVRAILPYTKVPDTDEISFLKGDMFIVHNELEDGWMWVTNLRTDEQGGIVEDLVEEVGR [L50G]: -0.613 ± 0.031; RRRVRAILPYTKVPDTDEISFLKGDMFIVHNELEDGWMWVTNLRTDEQGPIVEDLVEEVGR [L50P]: -0.504 ± 0.057.

Consider RRRVRAILPYTKVPDTDEISFLKGDMFIVHNELEDGWMWVTNLRNDEQGLIVEDLVEEVGR [T45N], for which the abundance fitness is -0.005 ± 0.027. Then RRRVRAILPYTMVPDTDEISFLKGDMFIVHNELEDGWMWVTNLRTDEQGLIVEDLVEEVGR [K12M], with -0.188 ± 0.053. Next, RRRVRAILPYTKVPDTDEWSFLKGDMFIVHNELEDGWMWVTNLRTDEQGLIVEDLVEEVGR [I19W]: -1.04 ± 0.12; RRRVRAIPPYTKVPDTDEISFLKGDMFIVHNELEDGWMWVTNLRTDEQGLIVEDLVEEVGR [L8P]: -0.99 ± 0.094. Then RRRVRAILHYTKVPDTDEISFLKGDMFIVHNELEDGWMWVTNLRTDEQGLIVEDLVEEVGR [P9H], with -0.157 ± 0.036; and RRRVRAILIYTKVPDTDEISFLKGDMFIVHNELEDGWMWVTNLRTDEQGLIVEDLVEEVGR [P9I], with -0.876 ± 0.055; and RRRVRAILPYTKVPDWDEISFLKGDMFIVHNELEDGWMWVTNLRTDEQGLIVEDLVEEVGR [T16W], with -0.688 ± 0.061. With RRRTRAILPYTKVPDTDEISFLKGDMFIVHNELEDGWMWVTNLRTDEQGLIVEDLVEEVGR [V4T], the abundance fitness was -0.605 ± 0.027. Then RRRVRAILPYTKVPDTDEISFLMGDMFIVHNELEDGWMWVTNLRTDEQGLIVEDLVEEVGR [K23M], with -0.149 ± 0.033; and RRRVRAILPYEKVPDTDEISFLKGDMFIVHNELEDGWMWVTNLRTDEQGLIVEDLVEEVGR [T11E], with -0.108 ± 0.089; and RRRVRAILPYIKVPDTDEISFLKGDMFIVHNELEDGWMWVTNLRTDEQGLIVEDLVEEVGR [T11I], with -0.055 ± 0.028.

For RRRVRAILPYTKVPQTDEISFLKGDMFIVHNELEDGWMWVTNLRTDEQGLIVEDLVEEVGR [D15Q], the abundance fitness was -0.207 ± 0.072. Then RRRVRAILPYTKVPPTDEISFLKGDMFIVHNELEDGWMWVTNLRTDEQGLIVEDLVEEVGR [D15P], with -0.819 ± 0.071. Then RRRVRAILPYTKVPLTDEISFLKGDMFIVHNELEDGWMWVTNLRTDEQGLIVEDLVEEVGR [D15L], with -0.246 ± 0.033.

These data come from the Human Domainome abundance scans (Beltran et al. 2025).
